Here are results for one protein from patent publication US20170325479A1.

In data set [1] the target is T1, 33-mer of gliadin (alpha-2-gliadin) (aa56-88).
T1 chain: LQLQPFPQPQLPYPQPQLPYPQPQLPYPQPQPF

Data set [2] addresses Bradykinin.
Data set [3] has as its target T2, H-AAPPA-NH2.
T2 chain: AAPPA

Data set [4] deals with T3, beta-casein tryptic peptide GPFPIIV.
T3 chain: GPFPIIV

The target in data set [5] is T4, beta-casein tryptic peptide HKEMPFPK
T4 chain: HKEMPFPK

For data set [6], the target named is T5, beta-lactoglobulin peptide IIAEK.
T5 chain: IIAEK

For data set [7], the target named is T6, beta-lactoglobulin peptide VYVEELKPTPEGDLEILLQK
T6 chain: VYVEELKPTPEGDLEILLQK

B1: proline tolerant tripeptidyl peptidase TRI083 (protein)
chain: QEPSSCKGTLVFEGETFNVFQPDCLRTEYSVDGYTPSVKSGSRIGFGSFLNESASFADQALFEKHFNIPSQNFSVVLINGGTDLPQPPSDANDGEANLDAQTILTIAHPLPITEFITAGSPPYFPDPVEPAGTPNENEPYLQYYEFLLSKSNAEIPQVITNSYGDEEQTVPRSYAVRVCNLIGLLGLRGISVLHSSGDEGVGASCVATNSTTPQFNPIFPATCPYVTSVGGTVSFNPEVAWAGSSGGFSYYFSRPWYQQEAVGTYLEKYVSAETKKYYGPYVDFSGRGFPDVAAHSVSPDYPVFQGGELTPSGGTSAASPVVAAIVALLNDARLREGKPTLGFLNPLIYLHASKGFTDITSGQSEGCNGNNTQTGSPLPGAGFIAGAHWNATKGWDPTTGFGVPNLKKLLALVRF
On to B1, for which, in data set [1], the Relative MS peak intensities of alpha-2-gliadin (intact substrate), 0 min (relative MS peak intensity) is 100; the Relative MS peak intensities of alpha-2-gliadin (intact substrate), 1 min (relative MS peak intensity) was 10; the Relative MS peak intensities of alpha-2-gliadin (intact substrate), 3 min (relative MS peak intensity) was 0; the Relative MS peak intensities of alpha-2-gliadin (intact substrate), 5 min (relative MS peak intensity) was determined as 0. In data set [1], the Relative MS peak intensities of alpha-2-gliadin (intact substrate), 10 min (relative MS peak intensity) stood at 0; the Relative MS peak intensities of alpha-2-gliadin (intact substrate), 15 min (relative MS peak intensity) amounted to 0; the Relative MS peak intensities of alpha-2-gliadin (intact substrate), 30 min (relative MS peak intensity) is 0; the “hydrolysis of substrate followed by LC-MS” value is on record as “proline tolerant tripeptidyl peptidase was found to cleave the substrate alpha-2-gliadin consecutively into tri-peptides irrespective of a high proline content”. Besides, the “digestion measured with LC-MS” value in data set [2] is on record as “The proline tolerant tripeptidyl peptidase efficiently digests the bradykinin peptide having the amino acid sequence RPPGFSPFR (see FIG. 24)”. For the same protein, in data set [3], the “hydrolysis of substrate followed by LC-MS and label free quantification” value was “proline tolerant tripeptidyl peptidase over time is able to degrade the peptide AAPPA (FIG. 5) and generate the product AAP (FIG. 6)”. Further, in data set [4], the “digestion measured with LC-MS” value was “the proline tolerant tripeptidyl peptidase is able to efficiently digest this peptide with proline in the P1′ position and in the P2 position”. Moreover, in data set [5], the “digestion measured with LC-MS” value is on record as “the peptide HKEMPFPK is also efficiently digested by the proline tolerant tripeptidyl peptidase”. Further, the “digestion measured with LC-MS” value in data set [6] is listed as “shows the digestion of a fragment of β-lactoglobulin (peptide IIAEK) by a proline tolerant tripeptidyl peptidase”. The “digestion measured with LC-MS” value in data set [7] is reported as “shows the digestion of a fragment of β-lactoglobulin (peptide VYVEELKPTPEGDLEILLQK) by a proline tolerant tripeptidyl peptidase”.
